According to US7662584, “Increased production of secreted proteins by recombinant eukaryotic cells” (Danisco US Inc.):

Experiments:
Conditions in all cases: tags: N-terminal MBP (malE), pMAL-p2X, E. coli; label: 32P-dCTP Klenow fill-in
[1] = target: T1, HAC1-malE fusion (HAC1 DNA binding domain and leucine zipper fragment) (Trichoderma reesei, UniProt Q8TFF3 SEQ:84-203); experiment: EMSA; specific binding; 10 mM MgCl2, 50 mM KCl, pH 6.9, poly(dIdC), 25 C
T1 chain: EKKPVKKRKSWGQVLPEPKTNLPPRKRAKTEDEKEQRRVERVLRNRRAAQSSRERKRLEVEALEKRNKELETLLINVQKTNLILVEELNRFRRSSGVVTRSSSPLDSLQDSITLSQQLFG
Method: (§1) FIG. 16 depicts bandshift experiments, where the binding of the malE-HAC1 fusion protein to the putative UPR element sequences found in *T. reesei* pdi1 and bip1 promoters was tested. The oligonucleotides used in the binding reactions are shown on the top. Lanes 1, 12 and 16, no protein; lanes 2, 4-7, 8-11. 13-15 and 17-19. malE-HAC1 fusion protein; lane 3. malE protein alone. The binding was competed with unlabelled oligonucleotides on lanes 5 (20× excess); lanes 6, 10, 14 and 18 (50× excess) and lanes 7, 11, 15, and 19 (200× excess). Alignment of the UPR element sequences that bind the HAC1-malE protein is shown below wherein the sequence of pdiUPREII is set forth in SEQ ID No: 61, the sequence of bipUPREI is set forth in SEQ ID No. 62, and the sequence of bipUPREII is set forth in SEQ ID No. 63.
The oligonucleotides used in binding reactions were annealed in the concentration of […] in 50 mM Tris, pH 8.0, 10 mM MgCl_2, 1 mM spermidine and 5 mM DTT by heating them at 65° C. for 10 minutes and letting them cool down to room temperature during 2 hours. The oligonucleotides were labelled by incubating 100 ng of the annealed oligonucleotide in 10 mM Tris, pH 8.0, 5 mM MgCl_2 with 20 μCi of ^32P-dCTP and 2.5 U Klenow polymerase (Boehringer Mannheim) at 37° C. for 30 minutes. The binding reactions between the oligonucleotides having the putative UPR elements and the proteins were carried out with 0.5-2 μg of the HAC1-malE fusion protein or 2 μg of the malE protein and 1 ng of the annealed and labelled oligonucleotide in a mixture containing 20 mM HEPES, pH 6.9, 50 mM KCl, 10 mM MgCl_2, 0.25 mM EDTA, 0.5 mM DTT, 2% Ficoll, 5% glycerol and 100 μg/ml poly(dIdC) DNA. The competing oligonucleotides were used in 20-200 times excess of the labelled oligonucleotide. The binding eaction mixtures were incubated for 30 minutes at 25° C. and run in a 5% polyacrylamide gel with 10% glycerol in 12.5 mM Tris-borate, pH 8.3, 0.6 mM EDTA for three hours. The gel was dried on a filter paper and exposed onto an X-ray film.

[2] = target: T1, HAC1-malE fusion (HAC1 DNA binding …); experiment: EMSA; no binding at all; 10 mM MgCl2, 50 mM KCl, pH 6.9, poly(dIdC), 25 C
Method: as §1
(§2) The oligonucleotides used in binding reactions were annealed in the concentration of […] in 50 mM Tris, pH 8.0, 10 mM MgCl_2, 1 mM spermidine and 5 mM DTT by heating them at 65° C. for 10 minutes and letting them cool down to room temperature during 2 hours. The oligonucleotides were labelled by incubating 100 ng of the annealed oligonucleotide in 10 mM Tris, pH 8.0, 5 mM MgCl_2 with 20 μCi of ^32P-dCTP and 2.5 U Klenow polymerase (Boehringer Mannheim) at 37° C. for 30 minutes. […]

[3] = target: T1, HAC1-malE fusion (HAC1 DNA binding …); experiment: EMSA; competed by excess unlabelled oligo; 10 mM MgCl2, 50 mM KCl, pH 6.9, poly(dIdC), 25 C
Method: as §1, §2

B1: bipUPREII (dsDNA)
DNA 1: GGGCGTGGAGAAGCGAGAAGTGGCCTCTTCTTCTCC
DNA 2: GGAGAAGAAGAGGCCACTTCTCGCTTCTCCACGCCC
- binding result [1]: binds

B2: pdiUPREI (dsDNA)
DNA 1: GGTACCTGCTAACCAGCGCGGCATGATTCAAC
DNA 2: GTTGAATCATGCCGCGCTGGTTAGCAGGTACC
- binding result [2]: no binding

B3: pdiUPREII (dsDNA)
DNA 1: GGATCTTGCATAGCCAGATGTGGCCTCGATTGACT
DNA 2: AGTCAATCGAGGCCACATCTGGCTATGCAAGATCC
- binding result [1]: binds

B4: pdiUPREI+II (dsDNA)
DNA 1: CGGCTGAACCAGCGCGGCAGCCAGATGTGGCCAAAGGG
DNA 2: CCCTTTGGCCACATCTGGCTGCCGCGCTGGTTCAGCCG
- binding result [3]: binds

B5: bipUPREI (dsDNA)
DNA 1: GGATTAGAAAACGCCAACGTGTCCATAACGGTC
DNA 2: GACCGTTATGGACACGTTGGCGTTTTCTAATCC
- binding result [1]: binds
